Source: the supplement of paper PMC7125110
± gives the standard error. Fewer inactive variants are shown than the library holds.

B1: glmS ribozyme (parent)
chain: AUAAAAGCGCCAGAACUACAGAAAUGUAGUUGACGAGGAGGAGGUUUAUCGAAUUUUCGGCGGAUGCCUCCAAA

What was measured:
Conditions in all cases: with glucosamine-6-phosphate
glucosamine-6-phosphate [1] = variants of: B1; experiment: self-cleavage kobs at 640 uM GlcN6P; higher = faster cleavage; RNA array
Method in brief: (§1)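 In situ transcription by E. coli RNA polymerase produced barcoded ribozyme variants on sequenced MiSeq chips, and a hybridised Cy3 probe tracked them at 37 °C. Glucosamine-6-phosphate was flowed in at 40 μM to 10 mM in HEPES/KCl/Mg(OAc)2 buffer. kcat and KM were taken from weighted Michaelis–Menten fits of kobs values from exponential decay fits.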

glucosamine-6-phosphate [2] = variants of: B1; experiment: self-cleavage kobs at 2500 uM GlcN6P; higher = faster cleavage; RNA array
Method in brief: as §1

glucosamine-6-phosphate [3] = variants of: B1; experiment: self-cleavage kobs at 10000 uM GlcN6P; higher = faster cleavage; RNA array
Method in brief: as §1

| Variant | self-cleavage kobs at 640 uM GlcN6P (glucosamine-6-phosphate [1]) [s⁻¹] | self-cleavage kobs at 2500 uM GlcN6P (glucosamine-6-phosphate [2]) [s⁻¹] | self-cleavage kobs at 10000 uM GlcN6P (glucosamine-6-phosphate [3]) [s⁻¹] |
| --- | --- | --- | --- |
| U31C G37A C70G | < 1e-05 | – | – |
| G21U U54C U69C | 0.00201 ± 0.00057 | 0.000416 ± 0.00014 | – |
| U31C A39U C67A | 0.000787 ± 0.00025 | 0.000712 ± 0.00021 | 0.000846 ± 0.0002 |
| G29A G38A G43C | < 1e-05 | – | – |
| G29U C34U U47G C68U | 5.56e-05 ± 2.3e-05 | – | – |
| C19U U46A | 0.0011 ± 0.00031 | 0.0021 ± 0.00075 | – |
| C16U C61A G63U | < 1e-05 | – | – |
| G21A G44U | 9.22e-05 ± 2.3e-05 | 0.000164 ± 3.3e-05 | – |
| U30A U54C G63A | < 1e-05 | – | – |
| G29C U47C C70U | 8.05e-05 ± 1.3e-05 | 0.000105 ± 2.4e-05 | – |
| U30A G32A G35C U45C | < 1e-05 | < 1e-05 | – |
| U31C C67G C68G | 5.49e-05 ± 1.6e-05 | – | – |
| C16U C67G C70U | 5.74e-05 ± 2e-05 | 7.27e-05 ± 2e-05 | – |
| C16U A53U G66C | 9.89e-05 ± 2.1e-05 | 0.000105 ± 2.8e-05 | 0.000199 ± 5.3e-05 |
| U30A G43C C58U U69A | < 1e-05 | < 1e-05 | – |
| U30G G37U G40U | < 1e-05 | < 1e-05 | – |
| G29U A33C U49G A64U | < 1e-05 | – | – |
| G29A G35C A48G | < 1e-05 | – | – |
| U31C A53G U65G | 0.000195 ± 3.6e-05 | 0.000454 ± 7.6e-05 | 0.000519 ± 9.8e-05 |
| U30A U45G | 0.000279 ± 6.7e-05 | 0.000752 ± 0.00013 | – |
| G29U G35A U45G | < 1e-05 | – | – |
| U30A C50A C67A C70G | 4.38e-05 ± 1.7e-05 | – | – |

| Variant | self-cleavage kobs at 640 uM GlcN6P (glucosamine-6-phosphate [1]) [s⁻¹] | self-cleavage kobs at 2500 uM GlcN6P (glucosamine-6-phosphate [2]) [s⁻¹] | self-cleavage kobs at 10000 uM GlcN6P (glucosamine-6-phosphate [3]) [s⁻¹] |
| --- | --- | --- | --- |
| C16U A48C G62U | < 1e-05 | < 1e-05 | – |
| U30C G38A G44A | < 1e-05 | < 1e-05 | – |
| G29C G32C A52C C68G | 8.66e-05 ± 3.9e-05 | – | – |
| U31A G44A C67U | 0.00323 ± 0.0014 | 0.00757 ± 0.0024 | 0.00871 ± 0.0018 |
| U30G U47C | 0.000187 ± 6.5e-05 | 0.00013 ± 6.3e-05 | – |
| C16U G35C A53U C58U | < 1e-05 | < 1e-05 | – |
| G29U A39G A53U | 0.00124 ± 0.00019 | – | – |
| U31A A33U U55A C58G | < 1e-05 | < 1e-05 | – |
| C16U G35U A64C | < 1e-05 | < 1e-05 | – |
| G29C U30C G66U | < 1e-05 | – | – |
| G29A G38U C50G | 0.00061 ± 0.00027 | – | – |
| G26U G32U | 0.000131 ± 4.5e-05 | 0.000943 ± 0.00021 | – |
| U30A G44C U45G A48C U57A | < 1e-05 | – | – |
| C16U U31A A33C U56G C68G | < 1e-05 | – | – |
| U30G U49C | < 1e-05 | < 1e-05 | – |
| G29U A33C C34A G37A C50U U69G | 0.000251 ± 5.9e-05 | – | 0.000226 ± 4.5e-05 |
| G29C A33G C68G | 6.58e-05 ± 3e-05 | – | – |
| C16U G29A U31G | 0.00216 ± 0.00066 | 0.0232 ± 0.011 | – |
| G29U A36U U69G | 0.00026 ± 0.00011 | 0.000178 ± 7.3e-05 | – |
| U30G A52C C71G | < 1e-05 | – | – |
| U31C A42C A64G C67G | < 1e-05 | – | – |
| G29C A36C A39C | < 1e-05 | – | < 1e-05 |

| Variant | self-cleavage kobs at 640 uM GlcN6P (glucosamine-6-phosphate [1]) [s⁻¹] | self-cleavage kobs at 2500 uM GlcN6P (glucosamine-6-phosphate [2]) [s⁻¹] | self-cleavage kobs at 10000 uM GlcN6P (glucosamine-6-phosphate [3]) [s⁻¹] |
| --- | --- | --- | --- |
| G29A A42G U56G | 0.000337 ± 0.00011 | 0.00148 ± 0.00036 | – |
| G29U A36G A53U G62A | < 1e-05 | < 1e-05 | – |
| G26U C71A | 0.000733 ± 0.0002 | 0.000394 ± 0.0001 | – |
| U30G A39C U55G | 0.000198 ± 5.5e-05 | 0.000726 ± 0.00014 | 0.00144 ± 0.00047 |
| G29U A53G U57C C67G U69A | 0.000459 ± 0.00022 | – | – |
| C16U G29U G40U G62C | < 1e-05 | – | – |
| U31C A42G C70U | 0.000788 ± 0.00029 | – | – |
| C16U U46C G62U | < 1e-05 | – | – |
| U30C U55A G60A C71A | < 1e-05 | – | – |
| U30C U49G U55C | < 1e-05 | – | – |
| A22G A36G U56C C70G | < 1e-05 | < 1e-05 | – |
| G29U A52U U65G C68G | 0.000163 ± 5.2e-05 | 0.000217 ± 5.1e-05 | – |
| G29U U30C A52U | < 1e-05 | < 1e-05 | – |
| U30C A36C G40U | < 1e-05 | < 1e-05 | – |
| G29U U55A A64G | 0.000889 ± 0.00022 | 0.00375 ± 0.00061 | – |
| G29A G32A G66A | 0.000119 ± 2.8e-05 | 0.000338 ± 8.3e-05 | – |
| U30G G43A C67A | 9.35e-05 ± 3e-05 | 0.000157 ± 5.9e-05 | – |
| G29U G43C U56C | < 1e-05 | – | – |
| G29C C58U U69A | 5.92e-05 ± 2.8e-05 | – | – |
| C16U U45A C70G | 0.000277 ± 6e-05 | 0.000385 ± 9.2e-05 | – |
| G29A U30G G35A A39U | < 1e-05 | < 1e-05 | – |
